Data on two molecules can be found in doi:10.1101/2024.02.08.579428.

Series [1] addresses T1, GUN1-FL (Arabidopsis thaliana, UniProt Q9SIC9 1-918).
T1 sequence: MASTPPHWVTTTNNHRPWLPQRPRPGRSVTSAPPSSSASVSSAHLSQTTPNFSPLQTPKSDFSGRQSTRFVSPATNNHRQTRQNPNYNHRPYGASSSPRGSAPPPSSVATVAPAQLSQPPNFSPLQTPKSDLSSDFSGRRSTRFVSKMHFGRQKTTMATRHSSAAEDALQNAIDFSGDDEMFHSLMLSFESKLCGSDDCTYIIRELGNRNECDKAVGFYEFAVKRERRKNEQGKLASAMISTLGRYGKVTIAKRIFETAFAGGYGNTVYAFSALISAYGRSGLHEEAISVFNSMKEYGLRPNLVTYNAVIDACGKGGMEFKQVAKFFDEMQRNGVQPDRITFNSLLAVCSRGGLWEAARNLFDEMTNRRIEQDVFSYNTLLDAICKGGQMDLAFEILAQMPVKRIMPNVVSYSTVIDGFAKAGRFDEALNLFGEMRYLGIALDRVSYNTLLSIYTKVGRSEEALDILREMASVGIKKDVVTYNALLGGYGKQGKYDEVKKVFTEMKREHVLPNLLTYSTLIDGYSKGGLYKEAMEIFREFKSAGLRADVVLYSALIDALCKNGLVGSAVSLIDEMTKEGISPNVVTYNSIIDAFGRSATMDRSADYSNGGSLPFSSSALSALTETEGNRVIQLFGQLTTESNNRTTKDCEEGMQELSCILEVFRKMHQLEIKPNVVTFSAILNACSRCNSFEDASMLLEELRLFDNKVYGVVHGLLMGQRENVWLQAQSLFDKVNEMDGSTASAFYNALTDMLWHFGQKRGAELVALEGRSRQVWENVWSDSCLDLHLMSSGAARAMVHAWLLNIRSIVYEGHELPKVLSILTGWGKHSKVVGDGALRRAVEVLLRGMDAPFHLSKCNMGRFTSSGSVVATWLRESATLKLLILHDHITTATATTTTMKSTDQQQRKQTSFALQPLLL
Briefly: EMSA.

The target of series [2] is T2, GUN1-PS (Arabidopsis thaliana, UniProt Q9SIC9 232-918).
T2 sequence: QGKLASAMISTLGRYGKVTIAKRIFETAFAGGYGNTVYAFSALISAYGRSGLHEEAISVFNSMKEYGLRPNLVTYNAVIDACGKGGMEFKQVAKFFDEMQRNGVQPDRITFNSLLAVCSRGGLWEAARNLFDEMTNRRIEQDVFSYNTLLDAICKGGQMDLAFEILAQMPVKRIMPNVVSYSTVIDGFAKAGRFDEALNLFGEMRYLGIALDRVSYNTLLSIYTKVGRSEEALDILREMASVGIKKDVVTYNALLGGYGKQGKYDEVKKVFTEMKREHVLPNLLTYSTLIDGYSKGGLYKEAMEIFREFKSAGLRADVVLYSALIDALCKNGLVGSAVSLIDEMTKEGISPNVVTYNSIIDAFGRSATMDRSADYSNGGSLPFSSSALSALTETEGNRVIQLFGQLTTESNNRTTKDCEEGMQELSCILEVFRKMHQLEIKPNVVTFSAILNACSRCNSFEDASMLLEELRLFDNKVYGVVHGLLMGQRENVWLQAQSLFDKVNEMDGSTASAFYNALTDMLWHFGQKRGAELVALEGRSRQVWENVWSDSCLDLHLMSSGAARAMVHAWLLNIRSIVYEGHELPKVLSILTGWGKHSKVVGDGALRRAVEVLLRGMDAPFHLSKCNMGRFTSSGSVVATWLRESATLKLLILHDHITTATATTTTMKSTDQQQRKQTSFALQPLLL
Briefly: EMSA.

As for AGAAAAAAAUCUGUUGAUAAAUGAA (ssRNA) [ndhG_118454], the binding result in series [1] is recorded as “binds”.

Take AAGAGACAACCUGGCGAACUGAAAC (ssRNA) [23S_104856]: the binding result in series [1] and in series [2] was “binds” in each case.
